Sequences and labels used below:
T1: human IL6R (human, UniProt P08887 20-358, limits assumed)
T1 construct: Antigen of the Biacore experiments
T1 sequence (looked up): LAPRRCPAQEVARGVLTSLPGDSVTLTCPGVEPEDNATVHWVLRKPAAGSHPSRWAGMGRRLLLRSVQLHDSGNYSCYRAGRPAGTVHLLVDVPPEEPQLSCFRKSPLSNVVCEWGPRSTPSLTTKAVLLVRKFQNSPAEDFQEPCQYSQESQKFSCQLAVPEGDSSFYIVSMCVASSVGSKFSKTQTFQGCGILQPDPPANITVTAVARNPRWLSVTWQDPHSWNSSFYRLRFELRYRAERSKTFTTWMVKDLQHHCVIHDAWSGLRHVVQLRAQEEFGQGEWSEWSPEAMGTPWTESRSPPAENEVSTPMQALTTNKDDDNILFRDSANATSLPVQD

B1: IL6R65PMP13G5 (VHH)
VHH: EVQLVESGGGLVQPGGSLRLSCAASGTIFKINIMAWYRQAPGKGRELVAAIINSGSTSYADSVKGRFTISRDNAKNTLYLQMNSLRPEDTAVYYCAFVTTNSDYDLGRDYWGQGTLVTVSS
B2: IL6R65PMP19A4 (VHH)
VHH: EVQLVESGGGLVQPGGSLRLSCAASGSIFKVNAMGWYRQAPGKGRELVAGIISGGSTNYADSVKGRFTISRDNAKNTLYLQMNSLRPEDTAVYYCAFITTDTNYDLGKRSWGQGTLVTVSS
notes: CDR3 library clone
B3: IL6R65PMP18B1 (VHH)
VHH: EVQLVESGGGLVQPGGSLRLSCAASGSIFKVNAMGWYRQAPGKGRELVAGIISGGSTNYADSVKGRFTISRDNAKNTLYLQMNSLRPEDTAVYYCAFITADTDYDLGKRYWGQGTLVTVSS
notes: CDR3 library clone
B4: IL6R65PMP18G8 (VHH)
VHH: EVQLVESGGGLVQPGGSLRLSCAASGTTFKINVMAWYRQAPGKGRELVAGIITGGTTTYADSVKGRFTISRDNAKNTLYLQMNSLRPEDTAVYYCAFVTTNSDYDLGRDYWGQGTLVTVSS
B5: IL6R65PMP18E11 (VHH)
VHH: EVQLVESGGGLVQPGGSLRLSCAASGTTFRINVMAWYRQAPGKGRELVAGIITNGSTSYADSVKGRFTISRDNAKNTLYLQMNSLRPEDTAVYYCAFVTTNSDYDLGRDYWGQGTLVTVSS
B6: IL6R65PMP13H4 (VHH)
VHH: EVQLVESGGGLVQPGGSLRLSCAASGSAFKVNVMAWYRQAPGKGRELVAGVITDGSTNYADSVKGRFTISRDNAKNTLYLQMNSLRPEDTAVYYCAFVTTNSDYDLGRDYWGQGTLVTVSS
B7: IL6R65PMP18G7 (VHH)
VHH: EVQLVESGGGLVQPGGSLRLSCAASGTTFKVNVMAWYRQAPGKGRELVAGIITGGSTTYADSVKGRFTISRDNAKNTLYLQMNSLRPEDTAVYYCAFVTTNSDYDLGRDYWGQGTLVTVSS
B8: IL6R65PMP18G12 (VHH)
VHH: EVQLVESGGGLVQPGGSLRLSCAASGSIFKINVMAWYRQAPGKGRELVAAIINSGTTSYADSVKGRFTISRDNAKNTLYLQMNSLRPEDTAVYYCAFVTTNSDYDLGRDYWGQGTLVTVSS
B9: IL6R65PMP16H6 (VHH)
VHH: EVQLVESGGGLVQPGGSLRLSCAASGSVFRINAMAWYRQAPGKGRELVAGFVTGGSSNYADSVKGRFTISRDNAKNTLYLQMNSLRPEDTAVYYCAFVTTNSDYDLGRDYWGQGTLVTVSS
B10: IL6R65PMP19H7 (VHH)
VHH: EVQLVESGGGLVQPGGSLRLSCAASGSIFKVNAMGWYRQAPGKGRELVAGIISGGSTNYADSVKGRFTISRDNAKNTLYLQMNSLRPEDTAVYYCAFITADTEYDLGKRFWGQGTLVTVSS
notes: CDR3 library clone
B11: IL6R65PMP18G11 (VHH)
VHH: EVQLVESGGGLVQPGGSLRLSCAASGSIFKINVMAWYRQAPGKGRELVAAIINGGTTSYADSVKGRFTISRDNAKNTLYLQMNSLRPEDTAVYYCAFVTTNSDYDLGRDYWGQGTLVTVSS
B12: IL6R65PMP19H2 (VHH)
VHH: EVQLVESGGGLVQPGGSLRLSCAASGSIFKVNAMGWYRQAPGKGRELVAGIISGGSTNYADSVKGRFTISRDNAKNTLYLQMNSLRPEDTAVYYCAFITADTDYDLGKRYWGQGTLVTVSS
notes: CDR3 library clone
B13: 32C9PMP2_C9 (VHH, name in Kabat numbering)
VHH: EVQLVESGGGLVQAGGSLRLSCAASGFTFDDYDIGWFRQAPGKGREGVSGISSSDGNTYYADSVKGRFTISSDNAKNTLYLQMNSLKAEDTAVYYCAREPPDSSWYLDGSPEFFKYWGQGTLVTVSS
notes: Humanized 32C9 variant
B14: 32C9PMP1_A4 (VHH, name in Kabat numbering)
VHH: EVQLVESGGGLVQPGGSLRLSCAASGFTFDDYDIGWFRQAPGKEREWVSGISSSDGNTYYADSVKGRFTISSDNAKNTLYLQMNSLRPEDTAVYYCAREPPDSSWYLDGSPEFFKYWGQGTQVTVSS
notes: Humanized 32C9 variant
B15: 32C9PMP1_A3 (VHH, name in Kabat numbering)
VHH: EVQLVESGGGLVQAGGSLRLSCAASGFTFSDYDIGWVRQAPGKGREGVSGISSSDGNTYYADSVKGRFTISRDNAKNTVYLQMNSLKAEDTAVYYCAREPPDSSWYLDGSPEFFKYWGQGTQVTVSS
notes: Humanized 32C9 variant
B16: 32C9PMP1_G8 (VHH, name in Kabat numbering)
VHH: EVQLVESGGGLVQPGGSLRLSCAASGFTFSDYDIGWFRQAPGKGREGVSGISSSDGNTYYADSVKGRFTISSDNAKNTVYLQMNSLKAEDTAVYYCAREPPDSSWYLDGSPEFFKYWGQGTLVTVSS
notes: Humanized 32C9 variant
B17: 32C9PMP1_E2 (VHH, name in Kabat numbering)
VHH: EVQLVESGGGLVQAGGSLRLSCAASGFTFSDYDIGWVRQAPGKGREGVSGISSSDGNTYYADSVKGRFTISRDNAKNTLYLQMNSLKAEDTAVYYCAREPPDSSWYLDGSPEFFKYWGQGTLVTVSS
notes: Humanized 32C9 variant
B18: 32C9PMP1_G3 (VHH, name in Kabat numbering)
VHH: EVQLVESGGGLVQPGGSLRLSCAASGFTFSDYDIGWFRQAPGKGREGVSGISSSDGNTYYADSVKGRFTISRDNAKNTLYLQMNSLRPEDTAVYYCAREPPDSSWYLDGSPEFFKYWGQGTQVTVSS
notes: Humanized 32C9 variant
B19: 32C9PMP1_A2 (VHH, name in Kabat numbering)
VHH: EVQLVESGGGLVQPGGSLRLSCAASGFTFDDYDIGWVRQAPGKEREWVSGISSSDGNTYYADSVKGRFTISSDNAKNTVYLQMNSLKAEDTAVYYCAREPPDSSWYLDGSPEFFKYWGQGTLVTVSS
notes: Humanized 32C9 variant
B20: 32C9PMP1_B4 (VHH, name in Kabat numbering)
VHH: EVQLVESGGGLVQPGGSLRLSCAASGFTFSDYDIGWFRQAPGKGREGVSGISSSDGNTYYADSVKGRFTISSDNAKNTLYLQMNSLKAEDTAVYYCAREPPDSSWYLDGSPEFFKYWGQGTQVTVSS
notes: Humanized 32C9 variant
B21: 32C9PMP1_F9 (VHH, name in Kabat numbering)
VHH: EVQLVESGGGLVQPGGSLRLSCAASGFTFSDYDIGWFRQAPGKEREWVSGISSSDGNTYYADSVKGRFTISRDNAKNTVYLQMNSLKAEDTAVYYCAREPPDSSWYLDGSPEFFKYWGQGTLVTVSS
notes: Humanized 32C9 variant
B22: 32C9PMP1_A11 (VHH, name in Kabat numbering)
VHH: EVQLVESGGGLVQPGGSLRLSCAASGFTFSDYDIGWVRQAPGKEREWVSGISSSDGNTYYADSVKGRFTISSDNAKNTVYLQMNSLKAEDTAVYYCAREPPDSSWYLDGSPEFFKYWGQGTLVTVSS
notes: Humanized 32C9 variant
B23: 32C9PMP1_D5 (VHH, name in Kabat numbering)
VHH: EVQLVESGGGLVQPGGSLRLSCAASGFTFDDYDIGWVRQAPGKGREGVSGISSSDGNTYYADSVKGRFTISSDNAKNTLYLQMNSLRPEDTAVYYCAREPPDSSWYLDGSPEFFKYWGQGTLVTVSS
notes: Humanized 32C9 variant
B24: 32C9PMP1_B11 (VHH, name in Kabat numbering)
VHH: EVQLVESGGGLVQAGGSLRLSCAASGFTFSDYDIGWFRQAPGKGREGVSGISSSDGNTYYADSVKGRFTISRDNAKNTVYLQMNSLKAEDTAVYYCAREPPDSSWYLDGSPEFFKYWGQGTQVTVSS
notes: Humanized 32C9 variant
B25: 32C9PMP1_H6 (VHH, name in Kabat numbering)
VHH: EVQLVESGGGLVQPGGSLRLSCAASGFTFDDYDIGWFRQAPGKELEGVSGISSSDGNTYYADSVKGRFTISRDNAKNTLYLQMNSLKAEDTAVYYCAREPPDSSWYLDGSPEFFKYWGQGTQVTVSS
notes: Humanized 32C9 variant
B26: 32C9PMP1_G9 (VHH, name in Kabat numbering)
VHH: EVQLVESGGGLVQPGGSLRLSCAASGFTFDDYDIGWVRQAPGKELEGVSGISSSDGNTYYADSVKGRFTISSDNAKNTVYLQMNSLKAEDTAVYYCAREPPDSSWYLDGSPEFFKYWGQGTLVTVSS
notes: Humanized 32C9 variant
B27: 32C9PMP1_D7 (VHH, name in Kabat numbering)
VHH: EVQLVESGGGLVQPGGSLRLSCAASGFTFDDYDIGWVRQAPGKEREWVSGISSSDGNTYYADSVKGRFTISRDNAKNTLYLQMNSLKAEDTAVYYCAREPPDSSWYLDGSPEFFKYWGQGTLVTVSS
notes: Humanized 32C9 variant
B28: 32C9PMP1_H1 (VHH, name in Kabat numbering)
VHH: EVQLVESGGGLVQPGGSLRLSCAASGFTFSDYDIGWVRQAPGKGREGVSGISSSDGNTYYADSVKGRFTISRDNAKNTVYLQMNSLKAEDTAVYYCAREPPDSSWYLDGSPEFFKYWGQGTQVTVSS
notes: Humanized 32C9 variant

The first test has as its target T1, human IL6R. The test can be described thus: SPR (Biacore), periplasmic extract. The protocol:
Selection outputs were analyzed by picking individual colonies and growing them overnight in 1 ml 2×YT (Yeast Tryptone) medium+100 ug/ml Carbenicillin at 37 C. Nanobody containing periplasmic extracts were prepared, diluted 1/10 in PBS and subsequently tested for antigen binding in ELISA. Clones with the highest ELISA signals were sequenced and analyzed on Biacore. […] The off-rate of the best clone from the CDR3 library was 7×10e-4 s-1.
In general terms: Surface plasmon resonance follows binding to a sensor surface in real time, without labels.
Broadly, the koff is the rate constant with which the complex falls apart. As to B1, the off-rate constant (koff) worked out at 0.00069 s⁻¹.

The molecule B2 returned a dissociation rate constant (koff) of 0.00089 s⁻¹.

Regarding B3, the koff stood at 0.00072 s⁻¹.

Regarding B4, the off-rate constant (koff) came out at 0.00023 s⁻¹.

For the molecule B5, the koff was 0.00027 s⁻¹.

Turning to B6, the koff was found to be 0.00052 s⁻¹.

On to B7, for which the koff was determined as 0.0003 s⁻¹.

Turning to B8, the dissociation rate constant (koff) was found to be 0.00034 s⁻¹.

Regarding B9, the koff came to 0.00032 s⁻¹.

In turn, B10 displayed an off-rate (koff) of 0.0011 s⁻¹.

Take B11: the off-rate constant (koff) amounted to 0.00033 s⁻¹.

Consider B12, for which the koff worked out at 0.00074 s⁻¹.

In the next test the target is T1, human IL6R. Nature of the test: SPR (Biacore), periplasmic extract. This is another data set of the same source.
As for B13, the binding result is listed as “no binding”.

As for B14, the binding result is on record as “no binding”.

Turning to B15, the binding result is given as “no binding”.

As to B16, the binding result is recorded as “no binding”.

Turning to B17, the binding result is reported as “no binding”.

As for B18, the binding result is “no binding”.

As to B19, the binding result was “no binding”.

As to B20, the binding result is “no binding”.

On to B21, for which the binding result is listed as “no binding”.

As to B22, the binding result is recorded as “no binding”.

For B23, the binding result is listed as “no binding”.

Consider B24, for which the binding result is recorded as “no binding”.

Take B25: the binding result was “no binding”.

For the molecule B26, the binding result was “no binding”.

For B27, the binding result was “no binding”.

For the molecule B28, the binding result is given as “no binding”.

The values above are taken from patent US20100292083A1 (Ablynx, published 2010).
